In assay [1] the target is T1, tumor necrosis factor alpha (TNF-alpha) (UniProt P01375 77-233).
T1 construct: Called a homo-trimeric protein in the general description
The assay is described as follows: competition ELISA on TNF-alpha; competitor: biotinylated adalimumab. For orientation: An ELISA detects its analyte on a solid surface through an enzyme-linked reagent.

The target of assay [2] is T1, tumor necrosis factor alpha (TNF-alpha). Nature of the assay: competition ELISA on TNF-alpha; competitor: biotinylated adalimumab; arm liberated by trypsin.
Assay [3] addresses T2, interleukin-23 (IL-23) (UniProt Q9NPF7 20-189; P29460 23-328).
T2 sequence (looked up) 1: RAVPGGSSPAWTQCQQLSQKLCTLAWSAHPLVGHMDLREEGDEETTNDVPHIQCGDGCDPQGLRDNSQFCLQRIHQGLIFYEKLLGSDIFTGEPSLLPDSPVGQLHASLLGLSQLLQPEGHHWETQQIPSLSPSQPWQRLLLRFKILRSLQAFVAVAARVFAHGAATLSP
T2 sequence (looked up) 2: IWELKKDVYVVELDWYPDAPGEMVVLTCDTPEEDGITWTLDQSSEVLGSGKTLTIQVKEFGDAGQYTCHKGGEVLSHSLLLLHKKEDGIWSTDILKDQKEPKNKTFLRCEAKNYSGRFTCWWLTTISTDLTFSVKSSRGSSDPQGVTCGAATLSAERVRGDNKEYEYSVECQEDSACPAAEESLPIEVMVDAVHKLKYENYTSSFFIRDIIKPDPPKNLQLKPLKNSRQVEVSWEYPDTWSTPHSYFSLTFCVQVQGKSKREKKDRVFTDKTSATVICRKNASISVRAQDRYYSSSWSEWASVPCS
Nature of the assay: IL-23/IL-23R interference ELISA; blocked interaction: IL-23 with IL-23 receptor.

Assay [4] deals with T2, interleukin-23 (IL-23). Nature of the assay: IL-23/IL-23R interference ELISA; blocked interaction: IL-23 with IL-23 receptor; arm liberated by trypsin.

T1 sequence (P01375 77-233 limits assumed): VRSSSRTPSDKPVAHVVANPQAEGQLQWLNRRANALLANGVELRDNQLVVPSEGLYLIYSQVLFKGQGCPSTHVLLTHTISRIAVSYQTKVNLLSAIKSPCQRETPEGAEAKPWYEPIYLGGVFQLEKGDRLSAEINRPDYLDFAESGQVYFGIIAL

B1: TNF-alpha inhibitor (anti-TNF-alpha single domain antibody, parent monomer) (VHH)
VHH: DVQLVESGGGLVQPGGSLKLSCAASGFDFSSHWMYWVRQAPGKELEWLSEINTNGLITHYGDSVKGRFTVSRNNAANKMYLELTRLEPEDTALYYCARNQHGLNKGQGTQVTVSS
notes: Produced and purified from yeast; also called ID-38F
Take B1: the “IC50 (read off the curve)” value in assay [1] was approximately 0.3 nM.

B2: liberated anti-TNF-alpha monomer arm of TNF-alpha/IL-23 dual inhibitor (VHH)
VHH: B1 VHH
notes: Cleavage product; carries the remnant of the linker at its C-terminus; also called liberated-TNF
In the case of B2, the “IC50 (read off the curve)” value in assay [2] was approximately 0.2 nM.

B3: TNF-alpha/IL-23 dual inhibitor (bispecific anti-TNF-alpha/anti-IL-23 domain antibody) (bispecific antibody)
chain: DVQLVESGGGLVQPGGSLKLSCAASGFDFSSHWMYWVRQAPGKELEWLSEINTNGLITHYGDSVKGRFTVSRNNAANKMYLELTRLEPEDTALYYCARNQHGLNKGQGTQVTVSSGGGGSGGGGSKGGGGSGGGGSEVQLVESGGGQVQPGGSLSLSCESSVSIWSFKVMGWFRQVPGKQRELVATITTGGSPDYSDSVKGRFTISRDYDKRTLYLQMNSLKPEDTAVYYCAGRLWAHITSSGHDVWGQGTQVTVSS
notes: Produced and purified from yeast; also called FA1K
B3: the “IC50 (read off the curve)” value (in assay [1]; in the assay with interleukin-23 (IL-23) [3]) was approximately 0.2 nM in each case.

B4: liberated anti-IL-23 monomer arm of TNF-alpha/IL-23 dual inhibitor (VHH)
VHH: EVQLVESGGGQVQPGGSLSLSCESSVSIWSFKVMGWFRQVPGKQRELVATITTGGSPDYSDSVKGRFTISRDYDKRTLYLQMNSLKPEDTAVYYCAGRLWAHITSSGHDVWGQGTQVTVSS
notes: Cleavage product; carries the remnant of the linker at its N-terminus; also called liberated-IL-23
Consider B4, for which, in the assay with interleukin-23 (IL-23) [4], the “IC50 (read off the curve)” value was approximately 0.1 nM.

B5: IL-23 inhibitor (anti-IL-23 single domain antibody, parent monomer) (VHH)
VHH: B4 VHH
notes: Produced in yeast; also called IL-23: D1E ID-L253T
For the molecule B5, the “IC50 (read off the curve)” value with interleukin-23 (IL-23) [3] was approximately 0.2 nM.

Values taken from patent US20260209332A1 (SORRISO PHARMACEUTICALS, published 2026).
